Here are results for one substance from patent US20150218230.

Common to all, as to assay: cell_activity
The subject of data set [1] is TALE-nuclease collection F NG-NI-NN (synthetic).
Data set [2] concerns TALE-nuclease collection F HD-NN-NN (synthetic).
The subject of data set [3] is TALE-nuclease collection F NN-NG-NI (synthetic).
For data set [4], the system named is TALE-nuclease collection F NG-NG-HD (synthetic).
The subject of data set [5] is TALE-nuclease collection F NI-NN-NG (synthetic).
Data set [6] concerns TALE-nuclease collection F HD-NG-HD (synthetic).
In data set [7] the test system is TALE-nuclease collection F NG-HD-HD (synthetic).
Data set [8] relates to TALE-nuclease collection F NN-NI-NG (synthetic).
For data set [9], the system named is TALE-nuclease collection F NI-NN-NN (synthetic).
Data set [10] relates to TALE-nuclease collection F NG-NI-NG (synthetic).
The test system of data set [11] is TALE-nuclease collection F NG-NG-NI (synthetic).
The test system of data set [12] is TALE-nuclease collection F NG-NN-NG (synthetic).
Data set [13] has as its system TALE-nuclease collection F NI-NG-HD (synthetic).
The test system of data set [14] is TALE-nuclease collection F NG-HD-NI (synthetic).
The test system of data set [15] is TALE-nuclease collection F NN-NI-HD (synthetic).
Data set [16] relates to TALE-nuclease collection F NG-NI-NI (synthetic).
Data set [17] relates to TALE-nuclease collection F NG-NG-NN (synthetic).
Data set [18] deals with TALE-nuclease collection F NG-HD-NG (synthetic).
Data set [19] relates to TALE-nuclease collection F NG-NG-NG (synthetic).
For data set [20], the system named is TALE-nuclease collection F NG-NI-HD (synthetic).
Data set [21] relates to TALE-nuclease collection F NG-NN-NN (synthetic).
In data set [22] the test system is TALE-nuclease collection F NG-NN-HD (synthetic). The settings on record: GFP disruption, mammalian cells, rank 1.
The subject of data set [23] is TALE-nuclease collection F NG-HD-NN (synthetic).
For data set [24], the system named is TALE-nuclease collection F NN-NI-NN (synthetic).

For “integrated GFP locus TALE-nuclease target”, the activity (% GFP negative cells) in data set [1] came out at 17.7; in data set [2], 4.4; in [3], 7.6; in data set [4], 21; in [5], 5.9; in data set [6] it was 3.9. For the same substance, the activity (% GFP negative cells) in [7] turned out to be 18.9; in data set [8] it was 5.1; in [9], 6.2; in data set [10], 18.3; in data set [11], 9.4; in data set [12], 22.2. Besides, the activity (% GFP negative cells) is 3.6 in [13]; 4.5 in data set [14]; 5.3 in [15]; 12.6 in data set [16]; 18.6 in data set [17]; 14.7 in data set [18]. Further, the activity (% GFP negative cells) in [19] was determined as 19.5; in data set [20], 22.8; in data set [21], 19.8; in data set [22], 28.8; in [23], 6.5; in data set [24], 3.2.
